In article doi:10.64898/2025.12.15.694443 one finds stoichiometry N data, which are given here for 1 substance.

The target of this experiment is BRAF kinase domain (his6-BRAF^445-723-intein, intein cleaved) (human) (UniProt P15056). Nature of the experiment: mass photometry.

In turn, “BRAF kinase domain (his6-BRAF^445-723-intein, intein cleaved) (from UniProt P15056 445-723) (domain or fragment)” gave a stoichiometry N of 2.

The term stoichiometry N denotes a count of units in the complex or per binding partner.
